Test results reported in PMC9504841.

What was measured:
[1] = biological target: MPER_(664–690) peptide (HIV-1); experiment: ITC; Fab at 3 μM titrated with 12 injections of 40 μM peptide; VP-ITC, 25 °C; 10 mM sodium phosphate pH 7.5, 150 mM NaCl, 10% glycerol, 5 mM DPC; one-site binding model
[2] = biological target: native HIV-1 Env (PVO, clone 4) on virions (HIV-1)

Substance	Kd [1] [nM]	dH [1] [kcal/mol]	stoichiometry N [1]	pseudovirus neutralisation (cell-entry inhibition, TZM-bl cells; JRCSF and PVO.4 PsV): potency of the Fab against the parental Fab 10E8-WT [2] [fold]
10E8-2R Fab (LC S30R/N52R)	46.3	-6.24	1.17	–
10E8-2RF Fab (LC S30R/N52R, HC S100cF)	41.3	-2.3	1.16	50
10E8-WT Fab	32.4	-6.73	1.12	–
